Measurements reported in paper PMC5376648, “Cell-free reconstitution reveals centriole cartwheel assembly mechanisms” (Nature Communications, 2017).

Key:
[1] = molecular target: the molecule itself; assay: cryo-EM and cryo-electron tomography of assemblies formed in a cell-free assay; soluble protein alone (CrSAS-6_FL 10 uM or His-Stag-CrSAS-6_NL 20 uM in 20 mM Tris pH 7.5, 150 mM NaCl) dialysed >16 h against 10 mM K-PIPES pH 7.2; structures formed in solution vitrified and imaged
[2] = molecular target: the molecule itself; assay: negative staining EM of assemblies; CrSAS-6_NL diluted in 10 mM K-PIPES pH 7.0 to 3 ug/ml, deposited on carbon-coated grids, stained with 2% uranyl acetate

B1: full-length CrSAS-6 (HisCrSAS-6_FL) (natural protein, Chlamydomonas reinhardtii, UniProt A9CQL4 1-728, looked up)
chain: MPLLLDDGDPKAQTGFDLSTATTLFWRPVPVHVKQQDREDVLEELTFRILTGVAKQNHNLRILRIHISSDSDLFFLHTLEVSEEDFQSLKNDQGILVDFASFPGKIISLLEKCILAQPGDSPRFQAVLTIRGGESVFKIVEINDFKQLPHITLAFRPGNDSVVKQFLAFRLSEVKGTCHDLSDDLSRTRDDRDSMVAQLAQCRQQLAQLREQYDKHLLEVQAQAKTQQASAHEERIREKSQLKDQFEKERGEMEGRYRDQIAALNTRLGELDTENRKLREVKYELDTKVSELSHKLGSSEGSNRSLEEETARLRSLNQQLSSSKHELEIQLNEAKAKVLALDEKAQSQGDVIEQQRGRLRDMEAALRQTEQRCADLRDTLASAEGRAKEAQAEVLKGNQAIEKLTNDLRLAKEKTKRKAAIILRQEEELQEREQSLANATRDVGVLGQQAESLRKDVASLHSENDSLRSKLEDSKQQLQSNEQMIRWLNQQVTEAQLHASGATVAGSRYAFRPSAALPGSMPPPSVAATPAVGLLAAPGPSTAYKPGGTTSRYASTLGVTGLSSGLSGAGATSVGAAVAGGSYGAGGDSSYRPGVGGAYASSGGAGGFGGSVGGGGQVGGSGSAIGAATGAGSALGTYRSSYAASTHPSPGGVTAGMGSTLTTPAVNRYAAGSYSSVSSSLSFGGGLGAARAVDATPAASKYGVGFSNAAMGVVGTVGGAGGTDAQRA
notes: SAS-6 protein Bld12p (CrSAS-6) of Chlamydomonas reinhardtii, full length; A 6xHis tag stands between the Prescission site and CrSAS-6 and remains after cleavage; also called Bld12p; GST-HisCrSAS-6_FL (before cleavage); source: E. coli BL21(DE3), purified (glutathione agarose beads, eluted with Prescission Protease to remove GST); not shown: GST, N-terminal, cleaved; His6, N-terminal, kept
B1: binds [1].

B2: His-Stag-CrSAS-6_NL(1-503) (domain or fragment, Chlamydomonas reinhardtii, UniProt A9CQL4 1-503, looked up)
chain: MPLLLDDGDPKAQTGFDLSTATTLFWRPVPVHVKQQDREDVLEELTFRILTGVAKQNHNLRILRIHISSDSDLFFLHTLEVSEEDFQSLKNDQGILVDFASFPGKIISLLEKCILAQPGDSPRFQAVLTIRGGESVFKIVEINDFKQLPHITLAFRPGNDSVVKQFLAFRLSEVKGTCHDLSDDLSRTRDDRDSMVAQLAQCRQQLAQLREQYDKHLLEVQAQAKTQQASAHEERIREKSQLKDQFEKERGEMEGRYRDQIAALNTRLGELDTENRKLREVKYELDTKVSELSHKLGSSEGSNRSLEEETARLRSLNQQLSSSKHELEIQLNEAKAKVLALDEKAQSQGDVIEQQRGRLRDMEAALRQTEQRCADLRDTLASAEGRAKEAQAEVLKGNQAIEKLTNDLRLAKEKTKRKAAIILRQEEELQEREQSLANATRDVGVLGQQAESLRKDVASLHSENDSLRSKLEDSKQQLQSNEQMIRWLNQQVTEAQLHASGAT
notes: CrSAS-6 (Bld12p) of Chlamydomonas reinhardtii, residues 1-503; C-terminal truncation that keeps the N-terminal domain and the entire coiled coil; This form was used for cryo-EM and cryo-ET; source: E. coli BL21(DE3), purified (Ni-NTA, size exclusion chromatography)
B2: binds [1].

B3: CrSAS-6_NL(1-503), 6xHis tag cleaved (domain or fragment, Chlamydomonas reinhardtii, UniProt A9CQL4 1-503, looked up)
chain: B2 chain
notes: CrSAS-6 (Bld12p) of Chlamydomonas reinhardtii, residues 1-503; This form was used for negative staining EM; also called 6xHis-CrSAS-6_NL(1-503) (before cleavage)
B3: binds [2].
